T1: SFB-PGK1 Δ1-57 (human, UniProt P00558 58-417)
T1 construct: also called PGK1 Δ1-57 mutant; not shown: C-terminal SFB (S-Flag-Biotin) tag and any linker or added start Met of the pcDNA6/SFB construct
T1 sequence: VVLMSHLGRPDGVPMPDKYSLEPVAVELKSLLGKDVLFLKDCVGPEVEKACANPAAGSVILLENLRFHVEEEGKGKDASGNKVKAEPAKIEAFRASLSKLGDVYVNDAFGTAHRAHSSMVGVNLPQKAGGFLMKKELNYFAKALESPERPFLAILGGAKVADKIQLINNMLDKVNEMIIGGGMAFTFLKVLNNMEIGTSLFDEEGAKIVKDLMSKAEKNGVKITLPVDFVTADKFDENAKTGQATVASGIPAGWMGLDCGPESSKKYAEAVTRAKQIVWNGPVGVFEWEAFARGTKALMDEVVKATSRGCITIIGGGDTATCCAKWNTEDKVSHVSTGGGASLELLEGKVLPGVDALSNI

T2: SFB-PGK1 R39/K41A (human, UniProt P00558 1-417)
T2 construct: not shown: SFB (S-Flag-Biotin) tag, pcDNA6/SFB vector
T2 sequence (looked up): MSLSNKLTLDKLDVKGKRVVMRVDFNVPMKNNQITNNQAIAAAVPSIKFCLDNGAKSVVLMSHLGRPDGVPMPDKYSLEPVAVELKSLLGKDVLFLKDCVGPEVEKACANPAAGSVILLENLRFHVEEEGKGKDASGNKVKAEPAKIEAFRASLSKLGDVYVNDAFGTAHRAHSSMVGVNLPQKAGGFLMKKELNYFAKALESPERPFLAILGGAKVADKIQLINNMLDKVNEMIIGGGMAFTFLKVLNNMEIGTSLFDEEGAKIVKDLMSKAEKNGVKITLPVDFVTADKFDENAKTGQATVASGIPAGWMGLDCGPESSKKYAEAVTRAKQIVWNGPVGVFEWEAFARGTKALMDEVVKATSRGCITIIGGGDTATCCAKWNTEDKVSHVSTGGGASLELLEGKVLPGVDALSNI

B1: endogenous PGK1 (phosphoglycerate kinase 1) of U87 human GBM cells (enzyme)
chain: SLSNKLTLDKLDVKGKRVVMRVDFNVPMKNNQITNNQRIKAAVPSIKFCLDNGAKSVVLMSHLGRPDGVPMPDKYSLEPVAVELKSLLGKDVLFLKDCVGPEVEKACANPAAGSVILLENLRFHVEEEGKGKDASGNKVKAEPAKIEAFRASLSKLGDVYVNDAFGTAHRAHSSMVGVNLPQKAGGFLMKKELNYFAKALESPERPFLAILGGAKVADKIQLINNMLDKVNEMIIGGGMAFTFLKVLNNMEIGTSLFDEEGAKIVKDLMSKAEKNGVKITLPVDFVTADKFDENAKTGQATVASGIPAGWMGLDCGPESSKKYAEAVTRAKQIVWNGPVGVFEWEAFARGTKALMDEVVKATSRGCITIIGGGDTATCCAKWNTEDKVSHVSTGGGASLELLEGKVLPGVDALSNI
notes: Endogenous protein from cell lysates
B2: endogenous PDHK1 of U87 cell mitochondria (enzyme)
chain: not shown
notes: also called pyruvate dehydrogenase kinase 1
B3: SFB-PDHK4 expressed in U87 cells (enzyme)
chain: not shown
notes: not shown: SFB tag, pcDNA6/SFB vector
B4: SFB-PDHK3 expressed in U87 cells (enzyme)
chain: not shown
notes: as for B3
B5: endogenous TOM20 of U87 cells (receptor, human, UniProt Q15388 1-145, looked up)
chain: MVGRNSAIAAGVCGALFIGYCIYFDRKRRSDPNFKNRLRERRKKQKLAKERAGLSKLPDLKDAEAVQKFFLEEIQLGEELLAQGEYEKGVDHLTNAIAVCGQPQQLLQVLQQTLPPPVFQMLLTKLPTISQRIVSAQSLAEDDVE

Experiments:
[1] = target: SFB-PDHK2 expressed in U87 cells (human, UniProt Q15119 1-407); experiment: streptavidin pull-down from mitochondrial fractions of U87 cells (FIG. 14C)
Procedure: (§1) Immunoblotting analyses were performed with the indicated antibodies. […] Immunoblotting analyses were performed with the indicated antibodies. […] Immunoblotting analyses were performed with the indicated antibodies. […] ATP concentrations in mitoplast isolated from U87 or U251 cells treated with or without hypoxia for 6 h were measured. […] Mitochondria fractions of U87 cells treated with or without hypoxia for 6 h were immunodepleted with or without an anti-PDHK1 pT338 antibody. Immunoblotting analyses were performed with the indicated antibodies. […] U87 and U251 cells expressing PGK1 shRNA were reconstituted to express WT rPGK1 or rPGK1 T378P. Immunoblotting analyses were performed with the indicated antibodies. FIGS. 14M-N. U87 and U251 cells with PGK1 shRNA and with reconstituted expression of WT rPGK1 or rPGK1 T378P were stimulated with or without hypoxia for 6 h. Mitochondria fractions were prepared. Immunoblotting analyses were performed with the indicated antibodies. […] Data represent the means±SD of three independent experiments. Immunoblotting analyses were performed with an anti-PGK1 antibody. […] U87 cells were stimulated with or without hypoxia for 6 h. Immunoblotting analyses of mitochondrial lysates were performed with the indicated antibodies.

[2] = target: B1; experiment: PGK1 immunoprecipitated from mitochondria of U87 cells, anti-PDHK1 immunoblot (FIG. 4B)
[3] = target: B1; experiment: streptavidin pull-down from mitochondrial fractions of U87 cells (FIG. 14C)
Procedure: as §1

SFB-PGK1 Δ1-57 = target: T1, SFB-PGK1 Δ1-57; experiment: streptavidin pull-down from U87 cells (FIG. 3D)
Procedure: (§2) FIGS. 3A-G. Immunoblotting and immunoprecipitation analyses were carried out using antibodies against the indicated proteins. […] FIGS. 3D-E. U87 cells expressing the indicated SFB-tagged PGK1 proteins were treated with or without hypoxia for 6 h. Streptavidin agarose beads were used to pull down SFB-tagged proteins.

SFB-PGK1 R39/K41A = target: T2, SFB-PGK1 R39/K41A; experiment: streptavidin pull-down from U87 cells (FIG. 3E)
Procedure: as §2

Binder: B1
binding result [1]: no binding

Binder: B2
binding result [2]: binds

Binder: B3
binding result [3]: no binding

Binder: B4
binding result [3]: no binding

Binder: B5
binding result (SFB-PGK1 Δ1-57): no binding
binding result (SFB-PGK1 R39/K41A): no binding

Reference: US20180011102A1 (University of Texas, published 2018)
